The target of series [1] is T1, β-catenin (UniProt P35222 1-781). The series is described as follows: SPR; stronger than ANAM-β; KD shown only in figure; SPR Biacore X100, CM5 chip, protein immobilized by amine coupling; RNA injected 1.5 min at 5 μL/min, six concentrations 4.1 nM-1 μM; running buffer, pH and temperature not stated. (In SPR one partner is held on a chip, and binding of the other changes the refractive index at the surface.)

For series [2], the target named is T1, β-catenin. The series is described as follows: SPR; KD shown only in figure; SPR Biacore X100, CM5 chip, protein immobilized by amine coupling; RNA injected 1.5 min at 5 μL/min, six concentrations 4.1 nM-1 μM; running buffer, pH and temperature not stated.

T1 sequence (P35222 whole entry): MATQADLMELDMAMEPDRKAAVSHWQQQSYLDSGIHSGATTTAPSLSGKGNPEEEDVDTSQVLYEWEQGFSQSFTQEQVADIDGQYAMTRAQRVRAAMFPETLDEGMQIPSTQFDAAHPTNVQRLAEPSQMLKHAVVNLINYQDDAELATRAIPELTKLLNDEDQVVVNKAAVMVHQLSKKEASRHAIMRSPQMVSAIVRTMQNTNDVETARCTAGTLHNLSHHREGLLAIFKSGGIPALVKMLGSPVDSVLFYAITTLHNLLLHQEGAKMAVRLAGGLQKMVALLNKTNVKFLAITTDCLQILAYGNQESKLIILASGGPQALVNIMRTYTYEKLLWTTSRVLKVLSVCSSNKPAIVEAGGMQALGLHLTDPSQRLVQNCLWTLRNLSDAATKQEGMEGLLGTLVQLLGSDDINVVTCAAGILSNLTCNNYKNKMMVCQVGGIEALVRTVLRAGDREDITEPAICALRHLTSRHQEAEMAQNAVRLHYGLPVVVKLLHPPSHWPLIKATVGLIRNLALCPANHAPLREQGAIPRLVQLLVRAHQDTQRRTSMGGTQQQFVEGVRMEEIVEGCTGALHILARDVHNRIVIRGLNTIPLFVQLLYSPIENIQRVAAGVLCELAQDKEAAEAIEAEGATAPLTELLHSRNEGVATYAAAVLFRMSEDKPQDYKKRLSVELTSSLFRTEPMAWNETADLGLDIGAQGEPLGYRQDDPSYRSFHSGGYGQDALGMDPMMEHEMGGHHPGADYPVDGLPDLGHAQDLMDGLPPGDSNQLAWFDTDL

B1: ANAM-2Sβ (structured_RNA)
RNA: GGGAGCGGCCGAUCUAUGGACGCUAUAGGCACACCGGAUACUUUAACGAUUGGCCGCCUGCUGCGGGCCGAUCUAUGGACGCUAUAGGCACACCGGAUACUUUAACGAUUGGCCCGCAGCAGUUCCC
For B1, the binding result with β-catenin [1] was “binds”.

Take AGGCCGAUCUAUGGACGCUAUAGGCACACCGGAUACUUUAACGAUUGGCU (structured_RNA) [ANAM-β]: the binding result in the series with β-catenin [2] is “binds”.

The values above are taken from PMC7533053, “Improving transgene expression and CRISPR‐Cas9 efficiency with molecular engineering‐based molecules”.
